Assay results reported in patent US20170129954A1 (PROTHENA BIOSCIENCES, published 2017).
Substitutions are numbered along the chain they refer to.

How the values were obtained:
[1] = molecular target: T1, human MCAM Y318A mutant (shotgun mutagenesis library, on BHK cells) (human, UniProt P43121 24-646); assay: shotgun mutagenesis library, immunofluorescence on BHK cells, triplicate, background-subtracted and normalized to WT
T1 chain: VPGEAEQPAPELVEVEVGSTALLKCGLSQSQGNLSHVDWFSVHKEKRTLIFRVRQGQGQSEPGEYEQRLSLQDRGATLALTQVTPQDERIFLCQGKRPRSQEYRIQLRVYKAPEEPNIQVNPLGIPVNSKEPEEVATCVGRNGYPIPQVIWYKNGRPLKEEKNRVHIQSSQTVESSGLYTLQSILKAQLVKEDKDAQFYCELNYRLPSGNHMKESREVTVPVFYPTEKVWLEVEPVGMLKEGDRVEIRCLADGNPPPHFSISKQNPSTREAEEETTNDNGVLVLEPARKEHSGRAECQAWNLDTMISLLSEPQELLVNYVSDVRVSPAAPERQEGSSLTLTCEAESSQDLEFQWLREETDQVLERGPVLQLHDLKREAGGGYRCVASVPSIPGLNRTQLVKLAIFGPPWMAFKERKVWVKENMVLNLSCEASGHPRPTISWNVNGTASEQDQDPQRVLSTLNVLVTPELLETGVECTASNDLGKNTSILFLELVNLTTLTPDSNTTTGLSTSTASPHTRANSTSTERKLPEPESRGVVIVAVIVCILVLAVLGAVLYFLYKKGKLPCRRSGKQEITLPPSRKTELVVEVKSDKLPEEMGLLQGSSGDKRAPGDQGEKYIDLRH
Protocol: (§1) The mutation library was assayed for surface expression (mouse sera binding) and monoclonal antibody binding, in triplicate. Each raw data point was background-subtracted and normalized to the wild type MCAM reactivity values. The mean monoclonal antibody binding value for each clone is plotted as a function of its mean surface expression value (FIG. 1, gray diamonds). Thresholds of <30% monoclonal antibody reactivity and >50% mouse sera binding were applied to identify clones (FIG. 1, black diamonds) that were negative for monoclonal antibody binding but positive for surface expression.
(§2) Residues involved in antibody binding were identified as those that were negative for monoclonal antibody binding (<30% WT) but positive for surface expression (>50% WT) (Table 4). The mean reactivity (and standard deviation) were determined for each critical residue.

[2] = molecular target: T2, human MCAM C320A mutant (shotgun mutagenesis library, on BHK cells) (human, UniProt P43121 24-646); assay: as above
T2 chain: T1 chain with A295Y, C297A
Protocol: as §1, §2

[3] = molecular target: T3, human MCAM, full length, expressed on transfected cells (human, UniProt P43121 24-646); assay: flow cytometry, blocking of recombinant human laminin 411 (20 ug/ml) binding to CHO cells expressing human MCAM
T3 construct: also called CD146; MUC18
T3 chain: T1 chain with A295Y
Protocol: The 87 independent mouse fusion clones and 26 independent rat fusion clones described in Example 1 above as being capable of (i) binding to human MCAM, and (ii) blocking the interaction between human MCAM and the α-4 chain of laminin were further characterized as follows. First, IC50 quantitation for the ability of the monoclonal antibody to block the binding of human MCAM to the α-4 chain of laminin was determined as follows. CHO cells expressing human MCAM were incubated with an anti-human MCAM antibody (at various concentrations) for 30 minutes at 4 degrees Celsius. […] Unbound laminin was then washed away, and the laminin bound to the surface of the cells was detected with fluorescently labeled anti-laminin antibodies. After washing, the amount of laminin bound to the surface was detected by flow cytometry, and IC50s were calculated based on the mean fluorescent intensity.
Amino acid and nucleic acid sequences of the heavy and light chains of these antibodies, and their hypervariable regions, are provided in SEQ ID NOs:29-92. […] As such, each of these specific monoclonal antibodies was very capable of binding to human MCAM and inhibiting the interaction of cell-expressed human MCAM with its α-4 laminin binding ligand.

[4] = molecular target: T4, human MCAM Y318A single mutant displayed on mammalian cells (human, UniProt P43121 24-646); assay: FACS on mammalian cells displaying the mutant
T4 construct: also called Y318A mutant
T4 chain: T1 chain
From the text: Twenty point mutants based on the structure information and shotgun mutagenesis information were designed and generated.

- IC50 [3]: 0.545 µg/mL
- binding result [4]: no binding
B1: mouse anti-human MCAM monoclonal antibody clone 1749.1.3 (antibody, V domains shown)
VH: DVKLVESGGDLVKPGGSLKLSCAASGFTFSSYIMSWVRQTPEKRLEWVATISSGGSSTYYPDSVKGRFTISRDNAKNTLYLQMSSLKSEDTAMYYCTRDDDYDVKVFAYWGQGTLVTVSA
VL: DIVMSQSPSSLAVSAGEKVTMNCKSSRSLLNSRIRKNYLAWYQQKPGQSPKLLIYWASTRESGVPDRFTGSGSGTDFTLTISSVQAEDLAVYYCKQSYNLLTFGAGTKLELK
notes: Mouse hybridoma monoclonal antibody; also called m1749
- mean reactivity (% of wild type MCAM), standard deviation in brackets [1]: 7.1 % of WT
- mean reactivity (% of wild type MCAM), standard deviation in brackets [2]: 9.3 % of WT
